The values that follow come from patent publication US20150368311A1 (Sanofi, published 2015).

Non-standard residues stand in square brackets, D forms with d. No end group written: not given here. Ala(4-thiazolyl) = N[C@@H](Cc1cscn1)C(=O)O; 1Nal = N[C@@H](Cc1cccc2ccccc12)C(=O)O; Phe(2-F) = N[C@@H](Cc1ccccc1F)C(=O)O; Nle = CCCC[C@H](N)C(=O)O

In one assay the target is human GLP-1 receptor (human, UniProt P43220 24-463). The experiment in a line: cell-based or functional assay.
In the next assay the target is human glucagon receptor (human, UniProt P47871 26-477). In words: cell-based or functional assay.
human glucagon receptor, sequence (P47871 26-477): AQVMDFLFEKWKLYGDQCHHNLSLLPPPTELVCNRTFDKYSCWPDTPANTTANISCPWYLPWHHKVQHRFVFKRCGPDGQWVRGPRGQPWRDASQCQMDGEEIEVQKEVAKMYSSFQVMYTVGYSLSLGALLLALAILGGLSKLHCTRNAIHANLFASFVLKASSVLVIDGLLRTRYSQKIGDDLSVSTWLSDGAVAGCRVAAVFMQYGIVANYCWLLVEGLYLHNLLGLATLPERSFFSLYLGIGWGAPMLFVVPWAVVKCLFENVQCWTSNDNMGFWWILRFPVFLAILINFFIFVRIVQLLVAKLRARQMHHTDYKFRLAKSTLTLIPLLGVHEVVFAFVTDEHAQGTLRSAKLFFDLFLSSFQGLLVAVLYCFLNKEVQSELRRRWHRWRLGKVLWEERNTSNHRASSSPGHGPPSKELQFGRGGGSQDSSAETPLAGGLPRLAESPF

B1: SEQ ID NO: 18 (peptide)
peptide: [Ala(4-thiazolyl)]SQGTFTSD[Phe(2-F)]SKQ[Nle]ESRRAQDFIEWLLATGPESGAPPPS-OH
modifications: N-terminus assumed
SMILES: CCCC[C@H](NC(=O)[C@H](CCC(N)=O)NC(=O)[C@H](CCCCN)NC(=O)[C@H](CO)NC(=O)[C@H](Cc1ccccc1F)NC(=O)[C@H](CC(=O)O)NC(=O)[C@H](CO)NC(=O)[C@@H](NC(=O)[C@H](Cc1ccccc1)NC(=O)[C@@H](NC(=O)CNC(=O)[C@H](CCC(N)=O)NC(=O)[C@H](CO)NC(=O)[C@@H](N)Cc1cscn1)[C@@H](C)O)[C@@H](C)O)C(=O)N[C@@H](CCC(=O)O)C(=O)N[C@@H](CO)C(=O)N[C@@H](CCCNC(=N)N)C(=O)N[C@@H](CCCNC(=N)N)C(=O)N[C@@H](C)C(=O)N[C@@H](CCC(N)=O)C(=O)N[C@@H](CC(=O)O)C(=O)N[C@@H](Cc1ccccc1)C(=O)N[C@H](C(=O)N[C@@H](CCC(=O)O)C(=O)N[C@@H](Cc1c[nH]c2ccccc12)C(=O)N[C@@H](CC(C)C)C(=O)N[C@@H](CC(C)C)C(=O)N[C@@H](C)C(=O)N[C@H](C(=O)NCC(=O)N1CCC[C@H]1C(=O)N[C@@H](CCC(=O)O)C(=O)N[C@@H](CO)C(=O)NCC(=O)N[C@@H](C)C(=O)N1CCC[C@H]1C(=O)N1CCC[C@H]1C(=O)N1CCC[C@H]1C(=O)N[C@@H](CO)C(=O)O)[C@@H](C)O)[C@@H](C)CC
B1: the “EC50 hGLP-1 R [pM], cAMP formation” value with human GLP-1 receptor amounted to 25800 pM. In addition, the “EC50 hGLUC R [pM], cAMP formation” value with human glucagon receptor worked out at 3.1 pM.

B2: SEQ ID NO: 19 (peptide)
peptide: [Ala(4-thiazolyl)]SQGTFTSD[1Nal]SKQ[Nle]ESRRAQDFIEWLLATGPESGAPPPS-OH
modifications: N-terminus assumed
SMILES: CCCC[C@H](NC(=O)[C@H](CCC(N)=O)NC(=O)[C@H](CCCCN)NC(=O)[C@H](CO)NC(=O)[C@H](Cc1cccc2ccccc12)NC(=O)[C@H](CC(=O)O)NC(=O)[C@H](CO)NC(=O)[C@@H](NC(=O)[C@H](Cc1ccccc1)NC(=O)[C@@H](NC(=O)CNC(=O)[C@H](CCC(N)=O)NC(=O)[C@H](CO)NC(=O)[C@@H](N)Cc1cscn1)[C@@H](C)O)[C@@H](C)O)C(=O)N[C@@H](CCC(=O)O)C(=O)N[C@@H](CO)C(=O)N[C@@H](CCCNC(=N)N)C(=O)N[C@@H](CCCNC(=N)N)C(=O)N[C@@H](C)C(=O)N[C@@H](CCC(N)=O)C(=O)N[C@@H](CC(=O)O)C(=O)N[C@@H](Cc1ccccc1)C(=O)N[C@H](C(=O)N[C@@H](CCC(=O)O)C(=O)N[C@@H](Cc1c[nH]c2ccccc12)C(=O)N[C@@H](CC(C)C)C(=O)N[C@@H](CC(C)C)C(=O)N[C@@H](C)C(=O)N[C@H](C(=O)NCC(=O)N1CCC[C@H]1C(=O)N[C@@H](CCC(=O)O)C(=O)N[C@@H](CO)C(=O)NCC(=O)N[C@@H](C)C(=O)N1CCC[C@H]1C(=O)N1CCC[C@H]1C(=O)N1CCC[C@H]1C(=O)N[C@@H](CO)C(=O)O)[C@@H](C)O)[C@@H](C)CC
Consider B2, for which the “EC50 hGLP-1 R [pM], cAMP formation” value with human GLP-1 receptor turned out to be 6640 pM. The “EC50 hGLUC R [pM], cAMP formation” value with human glucagon receptor amounted to 0.7 pM.

B3: SEQ ID NO: 9 (peptide)
peptide: [Ala(4-thiazolyl)]SQGTFTSDVSKQLESRRAQEFIEWLLAGGPESGAPPPS-OH
modifications: N-terminus assumed
SMILES: CC[C@H](C)[C@H](NC(=O)[C@H](Cc1ccccc1)NC(=O)[C@H](CCC(=O)O)NC(=O)[C@H](CCC(N)=O)NC(=O)[C@H](C)NC(=O)[C@H](CCCNC(=N)N)NC(=O)[C@H](CCCNC(=N)N)NC(=O)[C@H](CO)NC(=O)[C@H](CCC(=O)O)NC(=O)[C@H](CC(C)C)NC(=O)[C@H](CCC(N)=O)NC(=O)[C@H](CCCCN)NC(=O)[C@H](CO)NC(=O)[C@@H](NC(=O)[C@H](CC(=O)O)NC(=O)[C@H](CO)NC(=O)[C@@H](NC(=O)[C@H](Cc1ccccc1)NC(=O)[C@@H](NC(=O)CNC(=O)[C@H](CCC(N)=O)NC(=O)[C@H](CO)NC(=O)[C@@H](N)Cc1cscn1)[C@@H](C)O)[C@@H](C)O)C(C)C)C(=O)N[C@@H](CCC(=O)O)C(=O)N[C@@H](Cc1c[nH]c2ccccc12)C(=O)N[C@@H](CC(C)C)C(=O)N[C@@H](CC(C)C)C(=O)N[C@@H](C)C(=O)NCC(=O)NCC(=O)N1CCC[C@H]1C(=O)N[C@@H](CCC(=O)O)C(=O)N[C@@H](CO)C(=O)NCC(=O)N[C@@H](C)C(=O)N1CCC[C@H]1C(=O)N1CCC[C@H]1C(=O)N1CCC[C@H]1C(=O)N[C@@H](CO)C(=O)O
Consider B3, for which the “EC50 hGLP-1 R [pM], cAMP formation” value with human GLP-1 receptor was found to be 12200 pM. The “EC50 hGLUC R [pM], cAMP formation” value in the assay with human glucagon receptor amounted to 2.2 pM.
The matching figures for XSQGTFTSDISKQXESRRAQEFIEWLLATGPESGAPPPS (Tza (L-4-thiazolylalanine) at position 1; Nle at position 14; C-terminal -OH) [SEQ ID NO: 14]: 52900 pM and 1.2 pM.
In the same order, the values of XSQGTFTSDYSKQXESRRAQEFIEWLLATGPESGAPPPS (Tza (L-4-thiazolylalanine) at position 1; Nle at position 14; C-terminal -OH) [SEQ ID NO: 17] are 6940 pM and 1 pM.

B4: SEQ ID NO: 13 (peptide)
peptide: [Ala(4-thiazolyl)]SQGTFTSDFSKQ[Nle]ESRRAQDFIEWLLATGPESGAPPPS-OH
modifications: N-terminus assumed
SMILES: CCCC[C@H](NC(=O)[C@H](CCC(N)=O)NC(=O)[C@H](CCCCN)NC(=O)[C@H](CO)NC(=O)[C@H](Cc1ccccc1)NC(=O)[C@H](CC(=O)O)NC(=O)[C@H](CO)NC(=O)[C@@H](NC(=O)[C@H](Cc1ccccc1)NC(=O)[C@@H](NC(=O)CNC(=O)[C@H](CCC(N)=O)NC(=O)[C@H](CO)NC(=O)[C@@H](N)Cc1cscn1)[C@@H](C)O)[C@@H](C)O)C(=O)N[C@@H](CCC(=O)O)C(=O)N[C@@H](CO)C(=O)N[C@@H](CCCNC(=N)N)C(=O)N[C@@H](CCCNC(=N)N)C(=O)N[C@@H](C)C(=O)N[C@@H](CCC(N)=O)C(=O)N[C@@H](CC(=O)O)C(=O)N[C@@H](Cc1ccccc1)C(=O)N[C@H](C(=O)N[C@@H](CCC(=O)O)C(=O)N[C@@H](Cc1c[nH]c2ccccc12)C(=O)N[C@@H](CC(C)C)C(=O)N[C@@H](CC(C)C)C(=O)N[C@@H](C)C(=O)N[C@H](C(=O)NCC(=O)N1CCC[C@H]1C(=O)N[C@@H](CCC(=O)O)C(=O)N[C@@H](CO)C(=O)NCC(=O)N[C@@H](C)C(=O)N1CCC[C@H]1C(=O)N1CCC[C@H]1C(=O)N1CCC[C@H]1C(=O)N[C@@H](CO)C(=O)O)[C@@H](C)O)[C@@H](C)CC
In the case of B4, the “EC50 hGLP-1 R [pM], cAMP formation” value with human GLP-1 receptor is 32100 pM. Besides, the “EC50 hGLUC R [pM], cAMP formation” value in the assay with human glucagon receptor stood at 3.1 pM.
